Tests used:
Conditions in all cases: protein: recombinant; label: 5' 6-FAM on strand 1; blunt
TFAM (no MTS) [1] = target: T1, TFAM (no MTS) (Homo sapiens, UniProt Q00059 43-246); assay: fluorescence anisotropy; Hill n 2.46±0.23; FP: 25 mM HEPES, 10 mM Mg(OAc)2, 25 mM NaOAc, 75 mM KOAc, pH 7.5, 1 nM DNA, TFAM 0-15 nM diluted on ice (read temperature not stated); AFM oligos: on ice, 2 min
T1 sequence: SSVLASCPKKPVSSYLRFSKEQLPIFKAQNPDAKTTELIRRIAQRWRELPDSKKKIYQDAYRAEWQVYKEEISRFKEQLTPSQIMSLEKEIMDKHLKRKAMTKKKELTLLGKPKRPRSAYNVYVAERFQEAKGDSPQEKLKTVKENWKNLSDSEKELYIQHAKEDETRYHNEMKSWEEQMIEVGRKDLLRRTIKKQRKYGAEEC

TFAM (no MTS) [2] = target: T1, TFAM (no MTS); assay: fluorescence anisotropy; +UVC; Hill n 2.33±0.10; FP: 25 mM HEPES, 10 mM Mg(OAc)2, 25 mM NaOAc, 75 mM KOAc, pH 7.5, 1 nM DNA, TFAM 0-15 nM diluted on ice (read temperature not stated); AFM oligos: on ice, 2 min
TFAM (no MTS) [3] = target: T1, TFAM (no MTS); assay: fluorescence anisotropy; +UVC; Hill n 2.19±0.06; FP: 25 mM HEPES, 10 mM Mg(OAc)2, 25 mM NaOAc, 75 mM KOAc, pH 7.5, 1 nM DNA, TFAM 0-15 nM diluted on ice (read temperature not stated); AFM oligos: on ice, 2 min
TFAM (no MTS) [4] = target: T1, TFAM (no MTS); assay: fluorescence anisotropy; Hill n 2.07±0.07; FP: 25 mM HEPES, 10 mM Mg(OAc)2, 25 mM NaOAc, 75 mM KOAc, pH 7.5, 1 nM DNA, TFAM 0-15 nM diluted on ice (read temperature not stated); AFM oligos: on ice, 2 min
TFAM (no MTS) [5] = target: T1, TFAM (no MTS); assay: fluorescence anisotropy; +UVC; Hill n 2.12±0.28; FP: 25 mM HEPES, 10 mM Mg(OAc)2, 25 mM NaOAc, 75 mM KOAc, pH 7.5, 1 nM DNA, TFAM 0-15 nM diluted on ice (read temperature not stated); AFM oligos: on ice, 2 min

B1: RNR2_619 (dsDNA)
DNA 1: ATTGATCCAATAACTTGACCAACGGAACAAGTT
DNA 2: AACTTGTTCCGTTGGTCAAGTTATTGGATCAAT
For B1, which Kd (TFAM (no MTS) [1]) is on record?
The Kd was 4.89 ± 0.33 nM.

B2: RNR2_619 +UVC (dsDNA)
DNA 1: B1 DNA 1
DNA 2: B1 DNA 2
modifications: UVC 1500 J/m2 photolesions (positions undefined)
B2 was tested. Which Kd (TFAM (no MTS) [2]) did it give?
The Kd was 8.13 ± 0.39 nM.

B3: ND3_92 +UVC (dsDNA)
DNA 1: TTAGTAGCTATTACCTTCTTATTATTTGATCTA
DNA 2: TAGATCAAATAATAAGAAGGTAATAGCTACTAA
modifications: UVC 1500 J/m2 photolesions (positions undefined)
Which Kd (TFAM (no MTS) [3]) does the source give for B3 here?
Its Kd is 5.54 ± 0.14 nM.

B4: COX1_27 (dsDNA)
DNA 1: AAGACATTGGAACACTATACCTATTATTCGGCG
DNA 2: CGCCGAATAATAGGTATAGTGTTCCAATGTCTT
Which Kd (TFAM (no MTS) [4]) does the source give for B4 here?
The Kd was 6.09 ± 0.43 nM.

B5: COX1_27 +UVC (dsDNA)
DNA 1: B4 DNA 1
DNA 2: B4 DNA 2
modifications: UVC 1500 J/m2 photolesions (positions undefined)
How did the Kd (TFAM (no MTS) [5]) turn out when B5 was run?
Its Kd is 5.9 ± 0.1 nM.
